Test results from US20020165135A1 (HESKA, published 2002).

Biological target: T1, recombinant canine IL-13 (canine, UniProt Q9N0W9 21-131, limits assumed)
T1 sequence (looked up): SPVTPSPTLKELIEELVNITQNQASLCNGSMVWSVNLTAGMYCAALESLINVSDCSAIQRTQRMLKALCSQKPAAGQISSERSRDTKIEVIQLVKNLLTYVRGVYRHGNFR
Experiment: cell-based or functional assay

- Percent inhibition of IL-13 stimulated TF-1 cell proliferation; IL-13 at 10 ng/ml; fusion protein 6.6 ug/ml; refolding condition 1A: 30.9%
- Percent inhibition of IL-13 stimulated TF-1 cell proliferation; IL-13 at 10 ng/ml; fusion protein 6.6 ug/ml; refolding condition 1B: 43.7%
- Percent inhibition of IL-13 stimulated TF-1 cell proliferation; IL-13 at 10 ng/ml; fusion protein 6.6 ug/ml; refolding condition 1C: 100%
- Percent inhibition of IL-13 stimulated TF-1 cell proliferation; IL-13 at 10 ng/ml; fusion protein 6.6 ug/ml; refolding condition 1D: 99.8%
- Percent inhibition of IL-13 stimulated TF-1 cell proliferation; IL-13 at 10 ng/ml; fusion protein 6.6 ug/ml; refolding condition 2A: 35.1%
- Percent inhibition of IL-13 stimulated TF-1 cell proliferation; IL-13 at 10 ng/ml; fusion protein 6.6 ug/ml; refolding condition 2B: 18%
- Percent inhibition of IL-13 stimulated TF-1 cell proliferation; IL-13 at 10 ng/ml; fusion protein 6.6 ug/ml; refolding condition 2C: 16%
- Percent inhibition of IL-13 stimulated TF-1 cell proliferation; IL-13 at 10 ng/ml; fusion protein 6.6 ug/ml; refolding condition 2D: 7.5%
- Percent inhibition of IL-13 stimulated TF-1 cell proliferation; IL-13 at 10 ng/ml; fusion protein 6.6 ug/ml; refolding condition 3A: 81.3%
- Percent inhibition of IL-13 stimulated TF-1 cell proliferation; IL-13 at 10 ng/ml; fusion protein 6.6 ug/ml; refolding condition 3B: 96.3%
- Percent inhibition of IL-13 stimulated TF-1 cell proliferation; IL-13 at 10 ng/ml; fusion protein 6.6 ug/ml; refolding condition 3C: 98.9%
- Percent inhibition of IL-13 stimulated TF-1 cell proliferation; IL-13 at 10 ng/ml; fusion protein 6.6 ug/ml; refolding condition 3D: 49.9%
- Percent inhibition of IL-13 stimulated TF-1 cell proliferation; IL-13 at 50 ng/ml; fusion protein 6.6 ug/ml; refolding condition 1A: 29.4%
- Percent inhibition of IL-13 stimulated TF-1 cell proliferation; IL-13 at 50 ng/ml; fusion protein 6.6 ug/ml; refolding condition 1B: 34.6%
- Percent inhibition of IL-13 stimulated TF-1 cell proliferation; IL-13 at 50 ng/ml; fusion protein 6.6 ug/ml; refolding condition 1C: 92.3%
- Percent inhibition of IL-13 stimulated TF-1 cell proliferation; IL-13 at 50 ng/ml; fusion protein 6.6 ug/ml; refolding condition 1D: 31.7%
- Percent inhibition of IL-13 stimulated TF-1 cell proliferation; IL-13 at 50 ng/ml; fusion protein 6.6 ug/ml; refolding condition 2A: 19.7%
- Percent inhibition of IL-13 stimulated TF-1 cell proliferation; IL-13 at 50 ng/ml; fusion protein 6.6 ug/ml; refolding condition 2B: 24%
- Percent inhibition of IL-13 stimulated TF-1 cell proliferation; IL-13 at 50 ng/ml; fusion protein 6.6 ug/ml; refolding condition 2C: 11.9%
- Percent inhibition of IL-13 stimulated TF-1 cell proliferation; IL-13 at 50 ng/ml; fusion protein 6.6 ug/ml; refolding condition 2D: 28.8%
- Percent inhibition of IL-13 stimulated TF-1 cell proliferation; IL-13 at 50 ng/ml; fusion protein 6.6 ug/ml; refolding condition 3A: 44.7%
- Percent inhibition of IL-13 stimulated TF-1 cell proliferation; IL-13 at 50 ng/ml; fusion protein 6.6 ug/ml; refolding condition 3B: 92.5%
- Percent inhibition of IL-13 stimulated TF-1 cell proliferation; IL-13 at 50 ng/ml; fusion protein 6.6 ug/ml; refolding condition 3C: 95.4%
- Percent inhibition of IL-13 stimulated TF-1 cell proliferation; IL-13 at 50 ng/ml; fusion protein 6.6 ug/ml; refolding condition 3D: 32.7%
B1: PCaIL-13Rα2-Fc-B9563 (Fc fusion)
chain: MSMLSNAEIKVNPPQDFEIVDPGYLGYLSLQWQPPLFPDNFKECTIEYELKYRNIDSENWKTIITKNLHYKDGFDLNKGIEAKINTLLPAQCTNGSEVRSSWAETTYWTSPQGNRETKIQDMDCVYYNWQYLVCSWKPGMGVHFDTNYQLFYWYEGLDHSAECTDYIKVNGKNMGCRFPYLESSDYKDFYICVNGSSESQPIRPSYFIFQLQNIVKPMPPDYLSLTVKNSEEINLKWNMPKGPIPAKCFIYEIEFTEDGTTWVTTTVENEIQITRTSNESQKLCFLVRSKVNIYCSDDGIWSEWSDEQCWKGDIWKETGSNTKVDKPVAKECECKCNCNNCPCPGCGLLGGPSVFIFPPKPKDILVTARTPTVTCVVVDLDPENPEVQISWFVDSKQVQTANTQPREEQSNGTYRVVSVLPIGHQDWLSGKQFKCKVNNKALPSPIEEIISKTPGQAHQPNVYVLPPSRDEMSKNTVTLTCLVKDFFPPEIDVEWQSNGQQEPESKYRMTPPQLDEDGSYFLYSKLSVDKSRWQRGDTFICAVMHEALHNHYTQISLSHSPGK
